In experiment [1] the target is T1, Biotin PSGL-1(290-310) peptide (human, N-terminal acetyl; C-terminal Lys-biotin).
T1 peptide: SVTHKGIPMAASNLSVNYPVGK
The experiment can be described thus: ELISA, streptavidin-immobilized biotin peptide. As to the method:
(§1) A typical ELISA experiment involved binding of a single concentration or serially diluted mAb in assay buffer (3% BSA in PBS containing 0.05% Tween®20, pH 7.4) onto BSA blocked high binding microtiter plate half-wells (Corning Cat. #3690), which contained PSGL-1 protein or streptavidin-immobilized biotin peptide. After incubation for 45 min. at 37° C., the plate was washed 3 times with wash buffer (PBS containing 0.05% Tween®20, pH 7.4), and an appropriate HRP-conjugated secondary antibody added (25 ul/well) (HRP goat anti-mouse or anti-human IgG). After 45 min. incubation at 37° C., the plate was washed and antibody bound to plate-immobilized target was determined at A450 nm using HRP substrate (3,3′5,5′-tetramethylbenzidine (TMB)). For each antibody, duplicate values were averaged and assay background subtracted.

The target in experiment [2] is T2, 42-80 (C-terminal Lys-biotin).
T2 construct: also called Biotin PSGL-1(42-80) peptide
T2 peptide: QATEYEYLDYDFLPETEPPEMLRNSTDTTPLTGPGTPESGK
The experiment can be described thus: ELISA, streptavidin-immobilized biotin peptide. As to the method:
as §1

The target in experiment [3] is T3, Biotin PSGL-1(42-62) peptide, unmodified (human, C-terminal Lys-biotin).
T3 construct: Residues 42-62 followed by GGGK-biotin; also called WT; wild-type
T3 peptide: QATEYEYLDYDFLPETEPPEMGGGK
The experiment can be described thus: ELISA, streptavidin-immobilized biotin peptide. As to the method:
as §1

For experiment [4], the target named is T4, Biotin PSGL-1(105-125) peptide (human, N-terminal acetyl; C-terminal Lys-biotin).
T4 peptide: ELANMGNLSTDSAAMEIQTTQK
The experiment can be described thus: ELISA, plate-bound peptide or protein. In short, it runs like this: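 mAb, at a single concentration or serially diluted in 3% BSA/PBS/0.05% Tween 20 pH 7.4, was bound to BSA-blocked wells bearing PSGL-1 protein or streptavidin-captured biotin peptide for 45 min at 37 °C. HRP anti-mouse or anti-human IgG (45 min, 37 °C) and TMB gave A450; duplicates averaged, background subtracted.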

The target in another experiment is T5, PSGL-1(305-320).
T5 construct: also called Biotin PSGL-1(305-320) peptide
T5 peptide: Ac-VNYPVGAPDHISVKQSK(Biotin)
The experiment can be described thus: ELISA, streptavidin-immobilized biotin peptide [cont.]. As to the method: as §1

The target in another experiment is T6, 225-250 (N-terminal acetyl; C-terminal Lys-biotin).
T6 peptide: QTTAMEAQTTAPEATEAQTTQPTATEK
The description is as above. As to the method:
as §1

For experiment [5], the target named is T2, 42-80. Described as above. As to the method:
as §1

Another experiment has as its target T7, PSGL-1(90-110) (N-terminal acetyl; C-terminal Lys-biotin).
T7 construct: also called Biotin PSGL-1(90-110) peptide
T7 peptide: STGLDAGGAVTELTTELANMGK
Described as above. As to the method:
as §1

For a further experiment, the target named is T8, 165-190 (N-terminal acetyl; C-terminal Lys-biotin).
T8 construct: also called Biotin PSGL-1(165-190) peptide
T8 peptide: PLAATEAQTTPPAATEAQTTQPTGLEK
The experiment is described as above. As to the method: as §1

In a further experiment the target is T9, 245-265 (N-terminal acetyl; C-terminal Lys-biotin).
T9 peptide: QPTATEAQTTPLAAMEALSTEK
The experiment is described as above. As to the method:
as §1

Another experiment addresses T10, 275-295 (N-terminal acetyl; C-terminal Lys-biotin).
T10 peptide: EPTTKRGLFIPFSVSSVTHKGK
Described as above. As to the method: as §1

For experiment [6], the target named is T3, Biotin PSGL-1(42-62) peptide, unmodified. The experiment is described as above. As to the method: as §1
For a further experiment, the target named is T11, 260-280 (N-terminal acetyl; C-terminal Lys-biotin).
T11 construct: also called Biotin PSGL-1(260-280) peptide
T11 peptide: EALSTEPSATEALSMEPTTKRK
Described as above. As to the method:
as §1

In a further experiment the target is T12, 185-210 (N-terminal acetyl; C-terminal Lys-biotin).
T12 construct: also called Biotin PSGL-1(185-210) peptide
T12 peptide: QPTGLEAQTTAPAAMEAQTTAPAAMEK
The description is as above. As to the method: as §1

For the next experiment, the target named is T13, PSGL-1(120-140) (N-terminal acetyl; C-terminal Lys-biotin).
T13 construct: also called Biotin PSGL-1(120-140) peptide
T13 peptide: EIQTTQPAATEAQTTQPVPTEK
The experiment is described as above. As to the method:
as §1

The next experiment addresses T14, 205-230 (N-terminal acetyl; C-terminal Lys-biotin).
T14 peptide: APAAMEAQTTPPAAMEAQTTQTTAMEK
Described as above. As to the method:
as §1

A further experiment concerns the target T15, 63-80 (N-terminal acetyl; C-terminal Lys-biotin).
T15 construct: also called Biotin PSGL-1(63-80) peptide
T15 peptide: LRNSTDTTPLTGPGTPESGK
The experiment is described as above. As to the method: as §1

The next experiment deals with T16, 75-95 (N-terminal acetyl; C-terminal Lys-biotin).
T16 construct: also called Biotin PSGL-1(75-95) peptide
T16 peptide: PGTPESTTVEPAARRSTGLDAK
The description is as above. As to the method:
as §1

A further experiment deals with T17, 131-150 (N-terminal acetyl; C-terminal Lys-biotin).
T17 construct: also called Biotin PSGL-1(131-150) peptide
T17 peptide: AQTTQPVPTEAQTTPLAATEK
The description is as above. As to the method:
as §1

In experiment [7] the target is T18, Biotin PSGL-1(56-70) peptide (human).
T18 peptide: Ac-ETEPPEMLRNSTDTTGK(Biotin)
The description is as above. As to the method:
as §1

The target in the next experiment is T19, 145-170 (N-terminal acetyl; C-terminal Lys-biotin).
T19 peptide: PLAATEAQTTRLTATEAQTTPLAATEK
The experiment is described as above. As to the method:
as §1

No end group written: not given here. *: point of attachment. Biotin = O=C1N[C@H]2[C@H](CS[C@H]2CCCCC(=O)*)N1

B1: 16E17 (antibody, V domains shown)
VH: QIQLVQSGPELKKPGETVKISCKASGYAFTTYGMSWVKQAPGKGLKWMGWINTYSGVPKYADDFKGRFAFSLETSASTAYLHINNLKNEDTATYFCGRHYYGSSYFDYWGQGTTLTVSS
VL: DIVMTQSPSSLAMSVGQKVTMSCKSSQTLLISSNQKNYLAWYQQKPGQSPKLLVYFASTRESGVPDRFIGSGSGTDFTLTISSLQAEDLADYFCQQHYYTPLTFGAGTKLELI
notes: From mouse immunisation; only variable domains given
As to B1, the binding result (in experiment [1]; in the experiment with 42-80 [2]; in [3]) was “no binding (tested: 10 nM)” in each case. In [4], this molecule displayed a 50% effective concentration (EC50) of 26.7 nM.

B2: 18K07 (antibody, V domains shown)
VH: QIQLVQSGPELKKPGETVKISCEASGYTFTTYGMNWVKQAPGKGLKWMGWINTYSGVPTYADDFQGRFAFSVETSATTAYLQINNLKNEDAATYFCARSDDTYYGFAYWGQGTLVTVSA
VL: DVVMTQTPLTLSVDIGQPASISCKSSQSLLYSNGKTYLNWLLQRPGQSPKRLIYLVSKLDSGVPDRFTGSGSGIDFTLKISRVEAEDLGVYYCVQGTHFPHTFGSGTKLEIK
notes: as for B1
For B2, the binding result with PSGL-1(305-320), with 225-250, with 42-80 [5], with PSGL-1(90-110), with 165-190 and with 245-265 was “no binding (tested: 10 nM)” throughout. The binding result with 275-295 is listed as “no binding (tested: 10 nM)”; in experiment [6], “no binding (tested: 10 nM)”; with 260-280, “no binding (tested: 10 nM)”; in the experiment with 185-210, “no binding (tested: 10 nM)”; in the experiment with PSGL-1(120-140), “no binding (tested: Log M -7 (100 nM))”; with 205-230 it was “no binding (tested: 10 nM)”. The binding result (with 63-80; with 75-95; with 131-150; in [7]; with 145-170) was “no binding (tested: 10 nM)” in each case.
